Values joined by “and” are separate entries in the source; they are usually repeats but may differ in a detail not shown here. Identical values can stand only once.
What was measured:
[1] = molecular target: T1, soluble integrin αvβ3 (UniProt P06756 31-992; P05106 27-718); assay: ELISA-type, coated proteins, soluble integrin
T1 construct: Soluble integrin used at 1 µg/ml; also called soluble αvβ3

[2] = molecular target: T2, soluble recombinant integrin αIIbβ3 (UniProt P08514 32-993; P05106 27-718); assay: ELISA-type, coated proteins, soluble integrin
T2 construct: Bought (AgroBio), used at 1 µg/ml; also called soluble αIIbβ3

[3] = molecular target: integrins on CHO cells (α5β1+ and αvβ3 low), PSGL-1 negative; assay: cell-based or functional assay

T1 sequence (P06756 31-992, chain 1 of 2): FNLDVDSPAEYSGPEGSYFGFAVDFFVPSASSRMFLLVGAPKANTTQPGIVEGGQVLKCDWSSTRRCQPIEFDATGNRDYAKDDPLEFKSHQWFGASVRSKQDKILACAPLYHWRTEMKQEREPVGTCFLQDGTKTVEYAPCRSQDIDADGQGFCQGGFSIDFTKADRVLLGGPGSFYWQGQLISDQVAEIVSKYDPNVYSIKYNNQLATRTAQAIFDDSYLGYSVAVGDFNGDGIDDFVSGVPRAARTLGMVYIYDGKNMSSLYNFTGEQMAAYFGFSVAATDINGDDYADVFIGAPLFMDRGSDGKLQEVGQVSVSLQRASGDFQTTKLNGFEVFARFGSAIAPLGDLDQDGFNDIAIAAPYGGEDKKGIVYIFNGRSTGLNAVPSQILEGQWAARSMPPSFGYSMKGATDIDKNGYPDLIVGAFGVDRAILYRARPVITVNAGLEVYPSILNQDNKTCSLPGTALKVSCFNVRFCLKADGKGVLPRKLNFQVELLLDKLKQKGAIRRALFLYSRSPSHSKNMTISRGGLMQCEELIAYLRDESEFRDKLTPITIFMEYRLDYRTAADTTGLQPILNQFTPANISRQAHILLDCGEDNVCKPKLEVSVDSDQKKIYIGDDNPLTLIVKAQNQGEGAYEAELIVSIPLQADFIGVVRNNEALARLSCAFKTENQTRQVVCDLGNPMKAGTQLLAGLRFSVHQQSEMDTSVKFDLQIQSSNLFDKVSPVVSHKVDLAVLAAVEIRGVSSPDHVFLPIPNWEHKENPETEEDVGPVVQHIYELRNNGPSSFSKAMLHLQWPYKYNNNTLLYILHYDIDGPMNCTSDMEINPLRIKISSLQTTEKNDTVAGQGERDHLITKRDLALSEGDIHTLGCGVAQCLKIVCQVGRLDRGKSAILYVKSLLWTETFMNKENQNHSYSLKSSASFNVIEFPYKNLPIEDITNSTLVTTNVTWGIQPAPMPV
T1 sequence (P05106 27-718, chain 2 of 2): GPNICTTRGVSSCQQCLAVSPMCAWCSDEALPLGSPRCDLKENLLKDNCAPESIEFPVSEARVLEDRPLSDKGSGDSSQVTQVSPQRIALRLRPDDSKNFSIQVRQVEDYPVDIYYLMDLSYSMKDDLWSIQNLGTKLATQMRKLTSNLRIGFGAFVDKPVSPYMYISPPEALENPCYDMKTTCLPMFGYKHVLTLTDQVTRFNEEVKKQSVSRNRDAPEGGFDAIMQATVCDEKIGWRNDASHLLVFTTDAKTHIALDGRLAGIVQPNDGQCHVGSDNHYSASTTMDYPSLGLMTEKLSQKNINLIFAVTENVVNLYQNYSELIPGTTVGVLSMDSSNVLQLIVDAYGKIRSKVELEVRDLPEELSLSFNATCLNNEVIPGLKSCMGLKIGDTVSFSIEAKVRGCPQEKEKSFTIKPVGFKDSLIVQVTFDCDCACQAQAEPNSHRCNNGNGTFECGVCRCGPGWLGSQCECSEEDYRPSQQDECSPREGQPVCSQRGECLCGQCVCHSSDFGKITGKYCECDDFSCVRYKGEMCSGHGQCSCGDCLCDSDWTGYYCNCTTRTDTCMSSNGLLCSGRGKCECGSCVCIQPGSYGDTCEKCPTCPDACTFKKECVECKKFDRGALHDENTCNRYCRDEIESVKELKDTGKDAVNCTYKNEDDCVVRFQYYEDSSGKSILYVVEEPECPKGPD

Binder	fold binding against the combined lectin and EGF-like domains [1] [fold]	fold binding against the combined lectin and EGF-like domains [2] [fold]	adhesion of CHO cells to immobilized lectin domain [3]
C-type lectin domain of CD62P (P-selectin), wild type, residues 1-117 (ligand, not shown: small tags and cut ends, also called the lectin domain; CD62P lectin domain) WTYHYSTKAYSWNISRKYCQNRYTDLVAIQNKNEIDYLNKVLPYYSSYYWIGIRKNNKTWTWVGTKKALTNEAENWADNEPNNKRNNEDCVEIYIKSPSAPGKWNDEHCLKKKHALC	~2	~2	70% and > 90%
CD62P lectin domain mutant R16E/K17E, P16109 42-158 (ligand, not shown: small tags and cut ends) WTYHYSTKAYSWNISEEYCQNRYTDLVAIQNKNEIDYLNKVLPYYSSYYWIGIRKNNKTWTWVGTKKALTNEAENWADNEPNNKRNNEDCVEIYIKSPSAPGKWNDEHCLKKKHALC	–	–	60%
